± gives the standard deviation.

A short description of the data set: protein stability index of a GFP-peptide fusion (GPS, HEK-293T) (PSI 1-6); higher = more stable.
Setting [1] is: treatment: DMSO, c terminus: a fixed tail appended.
The mark [2] stands for this setting: treatment: MLN4924 1 uM, 8 h, c terminus: a fixed tail appended.
Setting [3] is: treatment: DMSO, c terminus: native.
[4] abbreviates: treatment: MLN4924 1 uM, 8 h, c terminus: native.
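Note: 24-mer peptide tiles fused after GFP, lentivirally expressed, FACS-sorted into six equal bins by GFP/DsRed ratio, decoded by Illumina sequencing, PSI is the read-weighted mean bin number.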

Take STDTESNNEEQRSGLIYLTNHIAP [IKZF1]: the protein stability index is, setting by setting: under setting [1], 4.63 ± 0.2; under setting [2], 4.81 ± 0.21.

With TKVQKKSLLLKKPLRVDLILENTS [NOP53], the protein stability index runs as follows: under setting [1], 2.71 ± 0.19; under setting [2], 2.84 ± 0.39.

NKRERSKLKNLRRKQRRRERWLQK [RNF180]: the protein stability index under setting [1] stood at 4.32 ± 0.24 and the protein stability index under setting [2] came out at 4.49 ± 0.38.

Sequence LCTPEGWFSCQGPFDMDSCLSRHS [DFFB] displayed a protein stability index under setting [1] of 2.52 ± 0.5 and a protein stability index under setting [2] of 2.75 ± 0.38.

QLLKNNEKLITWLNKELNENQLVR [SASS6]: the protein stability index is 1.88 ± 0.62 under setting [1] and 2.08 ± 0.38 under setting [2].

In the case of RQGLKYCLPLTFCIHTGLSQYIAV [FBXO3], the protein stability index is 3.08 ± 0.45 under setting [1] and 2.87 ± 0.52 under setting [2].

In the case of ERAELAASLGLTQTQVKIWFQNKR [DLX1], the protein stability index amounted to 3.59 ± 0.34 under setting [1] and 3.87 ± 0.44 under setting [2].

Turning to MVFEVLGHHLLKWIIKSNYQGLPV [SRPK2], the protein stability index runs as follows: under setting [1], 2.91 ± 0.33; under setting [2], 3.12 ± 0.27.

In the case of SARCVVSFNILVEDRVKLFGIEIE [PCDHGA10], the protein stability index by setting is: under setting [1], 2.12 ± 0.68; under setting [2], 1.95 ± 0.27.

For the sequence SNYSLPPPLPTYHVLLEGEGLGQS [TRIM29], the protein stability index reads like this: under setting [1], 3.67 ± 0.23; under setting [2], 3.68 ± 0.22.

Turning to DSCDRLTQSWSSQSSFNSLQRVPS [ETS1], the protein stability index runs as follows: under setting [1], 3.99 ± 0.24; under setting [2], 4.07 ± 0.23.

Take WKKQQKCDECGKIFSQSSALILHQ [ZNF396]: the protein stability index is 2.54 ± 0.25 under setting [1] and 2.91 ± 0.49 under setting [2].

In the case of KGCSLEQISMELAKVNYVKNNICF [SLC2A12], the protein stability index came out at 2.22 ± 0.35 under setting [1] and 2.27 ± 0.28 under setting [2].

As for TNDGNHPSCQETRDYAPPSRGYAY [RBMY1A1], the protein stability index by setting is: under setting [1], 4.33 ± 0.12; under setting [2], 4.36 ± 0.11.

Sequence EYRQKHGVPPLKLCKNLNREAQQY [GLIPR2] yielded a protein stability index under setting [1] of 3.42 ± 0.16 and a protein stability index under setting [2] of 3.4 ± 0.28.

GMLSYCDRYSEGIKHVLQTFGPIP [CRYL1]: the protein stability index by setting is: under setting [1], 2.72 ± 0.5; under setting [2], 2.196 ± 0.02.

With VVEKLNLFLDLLQSYKDLCERHEK [SNX8], the protein stability index under setting [1] turned out to be 2.19 ± 0.32 and the protein stability index under setting [2] is 2.23 ± 0.25.

Consider VYSQASTMSIPVAMETDGPLFEDV [PPP2R5C], for which the protein stability index reads like this: under setting [1], 3.94 ± 0.31; under setting [2], 4.14 ± 0.15.

Take ACGLSDVAHVESLQEKSQCALEEY [NR2F2]: the protein stability index stood at 4.58 ± 0.28 under setting [1] and 4.67 ± 0.3 under setting [2].

Consider SLSVRHRQVKHYRIFRLPNNWYYI [SLA], for which the protein stability index was 2.29 ± 0.7 under setting [1] and 2.58 ± 0.49 under setting [2].

As to LKKKHQLLEDARRKGMPFAQWDGP [PPFIA4], the protein stability index was 3.11 ± 0.37 under setting [1] and 3.31 ± 0.14 under setting [2].

For PDKKKRPRRSLSISKNKKKASNSI [FAN1], the protein stability index runs as follows: under setting [1], 4.56 ± 0.2; under setting [2], 4.76 ± 0.068.

DALDSEGRDSEGPAEGEGRLGRCM [KCNG1] showed a protein stability index under setting [1] of 5.34 ± 0.28 and a protein stability index under setting [2] of 5.53 ± 0.21.

As for FDVDHGICIMDAENITTVSVIKDH [WDR88], the protein stability index runs as follows: under setting [1], 3.27 ± 0.2; under setting [2], 3.25 ± 0.25.

For the sequence PCVAESPTVHVEVHQRGSSTAKKE [TRIP13], the protein stability index is, setting by setting: under setting [1], 5.42 ± 0.39; under setting [2], 5.35 ± 0.087.

RAEGTDIPTVKPLKPRPEPPKKPS [ZC2HC1A] gave a protein stability index under setting [1] of 5.38 ± 0.18 and a protein stability index under setting [2] of 5.4 ± 0.27.

As for PILQEGMDEEKLKQLNCVEISALN [DLC1], the protein stability index by setting is: under setting [1], 5.08 ± 0.15; under setting [2], 4.87 ± 0.15.

As for AMCVRYDGVEVDDSYCDALTRPEP [ADAMTSL2], the protein stability index under setting [1] was determined as 4.37 ± 0.33 and the protein stability index under setting [2] amounted to 4.31 ± 0.28.

Turning to ESLPRSEIDEKVTDLVQFLLFKYQ [MAGEA10], the protein stability index worked out at 2.35 ± 0.069 under setting [1] and 2.83 ± 0.5 under setting [2].

Turning to TSYYIRYRGAVYADSGNFKRCINL [FEM1C], the protein stability index stood at 2.48 ± 0.51 under setting [1] and 2.33 ± 0.57 under setting [2].

Take LDLKGNNLRAAGAEALGKLLQQNK [LRRC45]: the protein stability index under setting [1] worked out at 4.39 ± 0.19 and the protein stability index under setting [2] stood at 4.27 ± 0.097.

KKAAESLRRSVEKYNSARADFEQK [FCHO1]: the protein stability index by setting is: under setting [1], 4.2 ± 0.18; under setting [2], 4.43 ± 0.29.

For the sequence PASAPGEPRQRRLLLLDLLALYTP [ANKRD9], the protein stability index was determined as 2.25 ± 0.071 under setting [1] and 2.02 ± 0.48 under setting [2].

With GYSDRDGYGRDRDYSDHPSGGSYR [RBMX], the protein stability index runs as follows: under setting [1], 4.6 ± 0.31; under setting [2], 4.81 ± 0.45.

Consider EHKGWYSWVLSMLYGFLLTFGFIT [CLPTM1], for which the protein stability index is, setting by setting: under setting [1], 2.4 ± 0.56; under setting [2], 2.62 ± 0.37.

On to NDPSQSEVMGEPHLMVEYKLGLL [POMP], for which the protein stability index under setting [3] was found to be 4.16 ± 0.22 and the protein stability index under setting [4] came to 4.36 ± 0.21.

For the sequence PRSHFTTPAPMSSAWKTVACGGTR [MYBL2], the protein stability index came to 2.77 ± 0.32 under setting [1] and 2.84 ± 0.17 under setting [2].

GSGDSGDSSEEESHRVVLRPRGKE [LYSMD4]: the protein stability index reads like this: under setting [1], 5.55 ± 0.19; under setting [2], 5.35 ± 0.12.

For LPRKESPSVRSSKDGKLLAATLLL [TNFSF13B], the protein stability index by setting is: under setting [1], 2.26 ± 0.21; under setting [2], 2.18 ± 0.22.

As to NLSKSRKILRSMSRKVTTNKLLLS [VTI1B], the protein stability index reads like this: under setting [1], 2.85 ± 0.35; under setting [2], 2.92 ± 0.29.

For VFVCRVSAVLFYVNMYVSIVFFGL [P2RY14], the protein stability index runs as follows: under setting [1], 3.36 ± 0.33; under setting [2], 3.35 ± 0.54.

Take LLSKKGALQSRAAQRHRGSAKDGG [PLEKHN1]: the protein stability index runs as follows: under setting [1], 4.31 ± 0.12; under setting [2], 4.39 ± 0.28.

As to ALVIMWQKHYVYGPLPQSFDKEWV [COX4I1], the protein stability index runs as follows: under setting [1], 2.88 ± 0.33; under setting [2], 2.92 ± 0.39.

For the sequence PIIYFNDYWNLQKDYYPINESLAS [CLPTM1], the protein stability index runs as follows: under setting [1], 2.71 ± 0.85; under setting [2], 2.06 ± 0.2.

On to ELFRIGGKSPDTNYLFMGDYVDRG [PPP2CA], for which the protein stability index under setting [1] is 2.49 ± 0.39 and the protein stability index under setting [2] worked out at 2.48 ± 0.11.

In the case of SDAWTYCISKNEWIQFNHPYTEKP [KLHDC2], the protein stability index is 2.34 ± 0.18 under setting [1] and 2.37 ± 0.26 under setting [2].

In turn, HPRGWNDHVHILDTETFTWSQPIT [KLHDC2] yielded a protein stability index under setting [1] of 2.42 ± 0.29 and a protein stability index under setting [2] of 2.71 ± 0.54.

With LEEFKENAYKDLAWKHGNIHLSAP [PCMTD2], the protein stability index runs as follows: under setting [1], 3.33 ± 0.26; under setting [2], 3.81 ± 0.12.

For the sequence FRKIKDHFCPFENQFHTEIQILA [C8orf76], the protein stability index is 2.69 ± 1 under setting [3] and 3.26 ± 0.27 under setting [4].

On to NQAPSGPVASSGEFFGSASQPAVE [CLINT1], for which the protein stability index was found to be 5.16 ± 0.24 under setting [1] and 5.24 ± 0.43 under setting [2].

With GSCQLGGGRGVSTCSTRFVSGGSA [KRT13], the protein stability index is, setting by setting: under setting [1], 3.32 ± 0.47; under setting [2], 3.87 ± 0.21.

As for WMHTPEALSKHFIPYNAKFLGSTE [GULP1], the protein stability index by setting is: under setting [1], 2.27 ± 0.12; under setting [2], 2.3 ± 0.16.

In the case of LFSEASECMLLVFGIDVKEVDPTG [MAGEA10], the protein stability index is 2.3 ± 0.69 under setting [1] and 2.54 ± 0.21 under setting [2].

As to FSQKSCLVAHQRYHTGKTPFVCPE [ZNF649], the protein stability index is 2.58 ± 0.13 under setting [1] and 2.6 ± 0.23 under setting [2].

Turning to EATHEPAAARIRAQVPDTRWSRVG, the protein stability index reads like this: under setting [1], 4.62 ± 0.31; under setting [2], 4.05 ± 0.41.

As to HRPSTLQAASTPQAEEDWTCTIL [OAS1], the protein stability index is, setting by setting: under setting [3], 4.18 ± 0.17; under setting [4], 4.45 ± 0.14.

Consider LDLRVKGILSSQAEGLANGPDVLE [EHMT1], for which the protein stability index reads like this: under setting [1], 4.12 ± 0.2; under setting [2], 4.07 ± 0.39.

As to SKLKGAAVKLADFGLAIEVEGEQQ [CAMK2A], the protein stability index runs as follows: under setting [1], 4.06 ± 0.11; under setting [2], 4.4 ± 0.31.

Regarding VTFRDVAVDFTQEEWGQLDPTQRI [ZNF8], the protein stability index is, setting by setting: under setting [1], 3.8 ± 0.36; under setting [2], 3.82 ± 0.33.

With DLKNVKSKIGSTDNIKYQPKGGQV [MAP2], the protein stability index is, setting by setting: under setting [1], 3.24 ± 0.16; under setting [2], 3.54 ± 0.32.

For the sequence VHNAMDNYECNLYTFLYLVCISTK [FEM1B], the protein stability index worked out at 2.82 ± 0.59 under setting [1] and 2.2 ± 0.53 under setting [2].

Turning to DLTSSSSDELSWIIELLEKDGMAF [ELF3], the protein stability index is, setting by setting: under setting [1], 2.86 ± 0.34; under setting [2], 3.19 ± 0.29.

Take TRKLSPGKKRCKDIKRLLVNFMYL [SMG5]: the protein stability index under setting [1] amounted to 2.53 ± 0.45 and the protein stability index under setting [2] came to 2.62 ± 0.48.

As for RRVLPCIPSEEWPNPPTLQEAGLS [FAF2], the protein stability index reads like this: under setting [1], 3.9 ± 0.38; under setting [2], 3.79 ± 0.18.

With HMNVEALPEWISCLIQKAQWTVGK [RNF180], the protein stability index came to 2.32 ± 0.51 under setting [1] and 2.19 ± 0.34 under setting [2].

For the sequence GFEHYDLFFIDGSTPSDNIVRRFL [CDC14A], the protein stability index under setting [1] was determined as 2.12 ± 0.24 and the protein stability index under setting [2] is 2.16 ± 0.25.

Sequence GIPGWGFSGWISALVVPKGNTAVS [SCAMP3] showed a protein stability index under setting [1] of 2.78 ± 0.72 and a protein stability index under setting [2] of 2.41 ± 0.52.

RGREAGPPQPMVPLAVENQAGGEG [PBXIP1]: the protein stability index under setting [1] came to 5.27 ± 0.38 and the protein stability index under setting [2] is 5.25 ± 0.16.

GLHYIAFRKVKQMHLNFMDEKDRI [DNAJC4]: the protein stability index by setting is: under setting [1], 2.54 ± 0.29; under setting [2], 2.65 ± 0.35.

In the case of HQPPYIIAVLPRYVEIRTFEPRLL [VPS39], the protein stability index is, setting by setting: under setting [1], 2.61 ± 0.75; under setting [2], 2.38 ± 0.37.

RPSFNRTPIPWLSSGEPVDYNVDI [MYOZ1]: the protein stability index runs as follows: under setting [1], 3.57 ± 0.5; under setting [2], 3.66 ± 0.39.

Consider CDVWSIGCILFEYYRGFTLFQTHE [CLK3], for which the protein stability index runs as follows: under setting [1], 3.1 ± 0.48; under setting [2], 3.25 ± 0.44.

The values are drawn from the supplement of paper PMC10567573.
